For experiment [1], the target named is T1, human CD39 (protein; form not stated) (human, UniProt P49961 38-478, limits assumed).
T1 construct: also called ENTPD1; ENTPDase 1
T1 sequence: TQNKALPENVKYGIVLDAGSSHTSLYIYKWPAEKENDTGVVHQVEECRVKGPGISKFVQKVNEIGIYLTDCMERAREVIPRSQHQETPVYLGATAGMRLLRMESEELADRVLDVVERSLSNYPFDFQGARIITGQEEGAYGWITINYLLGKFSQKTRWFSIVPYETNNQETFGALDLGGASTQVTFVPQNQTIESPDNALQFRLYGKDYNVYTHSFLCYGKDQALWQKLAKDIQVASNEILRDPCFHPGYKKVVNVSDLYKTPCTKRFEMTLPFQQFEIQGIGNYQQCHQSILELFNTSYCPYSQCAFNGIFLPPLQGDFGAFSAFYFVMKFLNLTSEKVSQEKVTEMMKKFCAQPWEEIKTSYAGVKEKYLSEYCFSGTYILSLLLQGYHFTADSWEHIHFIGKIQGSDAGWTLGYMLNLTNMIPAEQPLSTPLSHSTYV
Description: Octet (BLI), antibody on sensor, CD39 in solution. As for the experimental part: Briefly, the antibodies were coupled on sensors and then the sensors were dipped into CD39 gradients (start at 200 nM, with 2-fold dilution and totally 8 doses). Their binding responses were measured in real-time and results were fit globally.
(In general: BLI is a label-free optical method that tracks binding on a fibre tip over time.)

In experiment [2] the target is T2, human CD39 (full length, on cells) (human, UniProt P49961 1-510).
T2 construct: Recombinant on CHOK1-hCD39 cells or natural on SK-MEL-28, SK-MEL-5 and MOLP-8 cells; the cell line is named under assay; also called hCD39; ENTPD1
T2 sequence: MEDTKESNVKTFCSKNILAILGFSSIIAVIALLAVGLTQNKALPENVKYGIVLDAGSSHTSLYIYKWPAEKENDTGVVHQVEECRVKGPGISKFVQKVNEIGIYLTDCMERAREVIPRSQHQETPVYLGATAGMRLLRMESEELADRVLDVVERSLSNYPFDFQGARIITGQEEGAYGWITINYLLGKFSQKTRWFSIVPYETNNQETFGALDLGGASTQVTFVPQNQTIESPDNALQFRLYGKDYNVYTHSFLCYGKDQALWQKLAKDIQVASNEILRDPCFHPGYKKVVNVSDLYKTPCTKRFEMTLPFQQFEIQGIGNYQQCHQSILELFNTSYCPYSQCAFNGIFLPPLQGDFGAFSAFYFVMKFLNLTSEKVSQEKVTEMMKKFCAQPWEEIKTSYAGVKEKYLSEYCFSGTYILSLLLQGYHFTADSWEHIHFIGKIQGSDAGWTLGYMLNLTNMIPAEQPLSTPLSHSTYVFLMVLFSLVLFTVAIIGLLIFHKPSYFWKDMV
Put plainly: FACS, MOLP-8 cells. The procedure: Similarly, human CD39 expressing cells SK-MEL-5, SK-MEL-28 or MOLP-8, were incubated with a gradient concentration of anti-CD39 antibodies for 30 minutes at 4° C. Cells were washed 3 times using FACS buffer and next incubated with fluorescence labelled secondary antibody (goat-anti-mouse IgG or goat anti-human IgG) for 30 minutes at 4° C. Cells were washed 3 times and then re-suspended in FACS buffer and analyzed by flow cytometry analysis on BD Celesta. Data plotted and analyzed using GraphPad Prism 8.02.
The binding affinity of the humanized antibodies for c23 was determined by FACS, using similar methods as described in Example 3.2. The c23 humanized antibody clones showing good binding affinity are listed in below Table 19 and Table 20, and also shown in FIGS. 7A, 7B and FIG. 8. EC₅₀ is the concentration of the indicated antibodies to reach 50% of the signal in this assay.
(Flow cytometry measures light scatter and fluorescence of single cells or particles in a stream.)

In experiment [3] the target is T2, human CD39 (full length, on cells). Description: cell-based or functional assay.

Where a chain is given by its changes, count along the chain named.

B1: hu14.H1L2 (antibody, V domains shown)
VH: EVQLVESGGGLVKPGGSLRLSCAASGFTFSKYWMNWVRQAPGKGLEWVGEIRLKSNKYGTHYAESVKGRFTISRDDSKNTLYLQMNSLKTEDTAVYYCTTQLDLYWFFDVWGQGTTVTVSS
VL: EIVLTQSPATLSLSPGERATLSCRASQSISDYLHWYQQKPGQSPRLLIYYASQSISGIPARFSGSGSGTDFTLTISSLEPEDFAVYFCQNGHSLPLTFGGGTKLEIK
notes: humanized c14
As for B1, in experiment [1], the Kd was 0.839 nM, the koff turned out to be 0.000326 s⁻¹ and the kon was found to be 389000 M⁻¹ s⁻¹.

B2: hu23.H2L2 (antibody, V domains shown)
VH: QVQLVQSGAEVKKPGASVKVSCKASGYNLKDTFLHWVRQAPGQGLEWMGRIDPANGNIKYDPKFQGRVTITADTSASTAYMELSSLRSEDTAVYYCANSPYYYGSGYRIFDVWGQGTTVTVSS
VL: EIVLTQSPATLSLSPGERATLSCSAFSSVNYMHWYQQKPGQAPRLLIYTTSNLASGIPARFSGSGSGTDYTLTISSLEPEDFAVYYCQQRSTYPFTFGQGTKLEIK
notes: humanized c23
For the molecule B2, the response in experiment [2] was half-maximal at 0.979 nM (EC50). In addition, the “ATPase inhibition IC50 on SK-MEL-28 cells” value (“ATPase inhibition IC50” below) in experiment [3] turned out to be 0.767 nM.

B3: hu23.H6L7 (antibody, V domains shown)
VH: B2 VH with Q1E, V20L, M48I, V68A, S77N, S84I
VL: B2 VL with E1Q, L13A, A19V, L21I, S22T, R44K, I57V, A59T, D69S, L77M
notes: humanized c23
On to B3, for which it took 0.122 nM to reach a half-maximal effect in experiment [2] (EC50).

B4: hu23.H6L6 (antibody, V domains shown)
VH: B2 VH with Q1E, V20L, M48I, V68A, S77N, S84I
VL: B2 VL with E1Q, L13A, R44K, I57V, A59T, D69S, L77M
notes: humanized c23
As to B4, the EC50 in experiment [2] came to 0.237 nM.

B5: hu23.H7L7 (antibody, V domains shown)
VH: B2 VH with Q1E, V20L, R38K, M48I, R67K, V68A, I70L, S77N, M81L, S84I
VL: B2 VL with E1Q, L13A, A19V, L21I, S22T, R44K, I57V, A59T, D69S, L77M
notes: humanized c23
In experiment [2], B5 returned an EC50 of 0.25 nM.

B6: hu23.H7L5 (antibody, V domains shown)
VH: B2 VH with Q1E, V20L, R38K, M48I, R67K, V68A, I70L, S77N, M81L, S84I
VL: B2 VL with E1Q, A59T, D69S
notes: humanized c23
With B6, the EC50 in experiment [2] came to 0.25 nM. For the same molecule, in experiment [3], the “ATPase inhibition IC50” value was 0.144 nM.

B7: hu23.H7L6 (antibody, V domains shown)
VH: B2 VH with Q1E, V20L, R38K, M48I, R67K, V68A, I70L, S77N, M81L, S84I
VL: B2 VL with E1Q, L13A, R44K, I57V, A59T, D69S, L77M
notes: humanized c23
In experiment [2], B7 gave an EC50 of 0.271 nM. Besides, the “ATPase inhibition IC50” value in experiment [3] amounted to 0.121 nM.

B8: hu23.H3L4 (antibody, V domains shown)
VH: B2 VH with V20L, M48I, V68A
VL: B2 VL with L13A, A19V, L21I, L77M
notes: humanized c23
In the case of B8, in experiment [2], the EC50 was determined as 1.61 nM.

B9: hu23.H7L1 (antibody, V domains shown)
VH: B2 VH with Q1E, V20L, R38K, M48I, R67K, V68A, I70L, S77N, M81L, S84I
VL: B2 VL with Y70F
notes: humanized c23
B9 had an EC50 in experiment [2] of 0.366 nM. For the same molecule, the “ATPase inhibition IC50” value in experiment [3] came to 0.147 nM.

B10: hu23.H6L5 (antibody, V domains shown)
VH: B2 VH with Q1E, V20L, M48I, V68A, S77N, S84I
VL: B2 VL with E1Q, A59T, D69S
notes: humanized c23
Regarding B10, in experiment [2], the EC50 was determined as 0.593 nM.

B11: hu23.H4L3 (antibody, V domains shown)
VH: B2 VH with V20L, R38K, M48I, V68A, I70L, M81L
VL: B2 VL with L13A, L77M
notes: humanized c23
Regarding B11, the EC50 in experiment [2] came to 1.87 nM.

B12: hu23.H6L1 (antibody, V domains shown)
VH: B2 VH with Q1E, V20L, M48I, V68A, S77N, S84I
VL: B2 VL with Y70F
notes: humanized c23
B12: the EC50 in experiment [2] came out at 0.246 nM.

B13: hu23.H5L6 (antibody, V domains shown)
VH: B2 VH with S77N, S84I
VL: B2 VL with E1Q, L13A, R44K, I57V, A59T, D69S, L77M
notes: humanized c23
With B13, the EC50 in experiment [2] stood at 0.202 nM. For the same molecule, the “ATPase inhibition IC50” value in experiment [3] was determined as 0.13 nM.

B14: hu23.H1L2 (antibody, V domains shown)
VH: B2 VH with G44R, A72R, N98R
VL: B2 VL
notes: humanized c23
The molecule B14 gave a concentration for a half-maximal effect (EC50) in experiment [2] of 1.16 nM. For the same molecule, the “ATPase inhibition IC50” value in experiment [3] worked out at 0.964 nM.

B15: hu23.H4L1 (antibody, V domains shown)
VH: B2 VH with V20L, R38K, M48I, V68A, I70L, M81L
VL: B2 VL with Y70F
notes: humanized c23
For B15, the binding result in experiment [2] was “no binding”.

B16: hu23.H5L7 (antibody, V domains shown)
VH: B2 VH with S77N, S84I
VL: B2 VL with E1Q, L13A, A19V, L21I, S22T, R44K, I57V, A59T, D69S, L77M
notes: humanized c23
In the case of B16, the EC50 in experiment [2] came to 0.179 nM.

B17: hu23.H2L1 (antibody, V domains shown)
VH: B2 VH
VL: B2 VL with Y70F
notes: humanized c23
B17 gave an EC50 in experiment [2] of 65.9 nM.

B18: hu23.H3L3 (antibody, V domains shown)
VH: B2 VH with V20L, M48I, V68A
VL: B2 VL with L13A, L77M
notes: humanized c23
Molecule B18 displayed an EC50 in experiment [2] of 3.29 nM.

B19: hu23.H1L3 (antibody, V domains shown)
VH: B2 VH with G44R, A72R, N98R
VL: B2 VL with L13A, L77M
notes: humanized c23
B19: it took 2.77 nM to reach a half-maximal effect in experiment [2] (EC50).

B20: hu23.H4L4 (antibody, V domains shown)
VH: B2 VH with V20L, R38K, M48I, V68A, I70L, M81L
VL: B2 VL with L13A, A19V, L21I, L77M
notes: humanized c23
For the molecule B20, in experiment [2], the EC50 came to 1.01 nM. Besides, the “ATPase inhibition IC50” value in experiment [3] worked out at 0.487 nM.

B21: hu23.H1L4 (antibody, V domains shown)
VH: B2 VH with G44R, A72R, N98R
VL: B2 VL with L13A, A19V, L21I, L77M
notes: humanized c23
As to B21, a half-maximal effect in experiment [2] (EC50) was put at 1.5 nM. Moreover, the “ATPase inhibition IC50” value in experiment [3] came out at 0.59 nM.

B22: hu23.H2L4 (antibody, V domains shown)
VH: B2 VH
VL: B2 VL with L13A, A19V, L21I, L77M
notes: humanized c23
B22 came in with an EC50 in experiment [2] of 1.46 nM.

B23: hu23.H5L1 (antibody, V domains shown)
VH: B2 VH with S77N, S84I
VL: B2 VL with Y70F
notes: humanized c23
B23 had an EC50 in experiment [2] of 0.262 nM.

B24: hu23.H4L2 (antibody, V domains shown)
VH: B2 VH with V20L, R38K, M48I, V68A, I70L, M81L
VL: B2 VL
notes: humanized c23
For B24, the EC50 in experiment [2] is 1.15 nM.

B25: hu23.H1L1 (antibody, V domains shown)
VH: B2 VH with G44R, A72R, N98R
VL: B2 VL with Y70F
notes: humanized c23
In the case of B25, in experiment [2], the EC50 is ~77.1 nM.

B26: hu23.H2L3 (antibody, V domains shown)
VH: B2 VH
VL: B2 VL with L13A, L77M
notes: humanized c23
In experiment [2], B26 came in with an EC50 of 2.03 nM.

B27: hu23.H3L2 (antibody, V domains shown)
VH: B2 VH with V20L, M48I, V68A
VL: B2 VL
notes: humanized c23
Molecule B27 came in with an EC50 in experiment [2] of 1.34 nM.

In general, Kd refers to a measure of binding affinity in units of concentration. Lower therefore signals a tighter complex. A word on the koff: it is the rate constant with which the complex falls apart. Higher therefore signals a short-lived complex. One may read the kon as the second-order rate constant of association. Higher therefore signals fast association. In general, EC50 refers to the midpoint of the concentration-response curve.

The record behind these values is patent US20210388105A1 (ELPISCIENCE SUZHOU BIOPHARMA, published 2021).
